The source of these data is patent US20160032014A1 (Amgen, published 2016).

Experiment [1] deals with T1, human PCSK9 (self-cleaved, mature, secreted PCSK9 comprising amino acids 31 to 692 of SEQ ID NO: 2) (human, UniProt Q8NBP7 31-692, biotinylated in the ELISAs).
T1 construct: Limits 31-692 are stated for the immunogen; the assays only say human PCSK9; also called huPCSK9; rhu PCSK9
The experiment can be described thus: SPR pH 7.4.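 Note: antibodies captured as ligand on the sensor surface, five analyte concentrations injected with buffer blanks, double-referenced data fit to a 1:1 binding model.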

For experiment [2], the target named is T1, human PCSK9 (self-cleaved, mature, …). The experiment can be described thus: SPR pH 5.5.

Residue numbers refer to the chain shown, from its start.

B1: SS-15121 (antibody, V domains shown)
VH: EVQLVESGGGLVKPGGSLRLSCAASGFTFSSYSMNWVRQAPGKGLEWVSSISSHSSYISYADSVKGRFTISRDNAKNSLYLQMNSLRAEDTAVYFCARDYDFHSAHYDAFDVWGQGTMVTVSS
VL: ESVLTQPPSVSGAPGQRVTISCTGSSSNIGAGYDVHWYQQLPGTAPKLLISGNSNRPSGVPDRFSGSKSGTSASLAITGLQAEDEADYYCQSYDSSLSGSVFGGGTKLTVLG
notes: 31H4 His variant: HC 61(54), 132(106), parental(113H); parental LC
What is called Kd is the equilibrium constant for the complex coming apart. A high value points to a looser complex. For orientation: koff means the rate constant with which the complex falls apart. Lower therefore signals slow dissociation. The term kon denotes the rate constant with which the complex forms. The low end stands for slower complex formation, the high end for faster complex formation. B1: in experiment [1], the Kd was determined as 0.383 nM, the off-rate constant (koff) stood at 0.000563 s⁻¹ and the kon came to 1.47e+06 M⁻¹ s⁻¹. In addition, the “estimated complex half life pH 5.5” value in experiment [2] is 20 s.

B2: SS-15136 (antibody, V domains shown)
VH: B1 VH with H54S, Y60H
VL: B1 VL
notes: 31H4 His variant: HC 70(60), 132(106), parental(113H)
In the case of B2, in experiment [1], binding was characterised by a dissociation constant (Kd) of 0.241 nM, the koff was found to be 0.000298 s⁻¹ and the kon was 1.23e+06 M⁻¹ s⁻¹. For the same molecule, the “estimated complex half life pH 5.5” value in experiment [2] was 100 s.

B3: SS-15141 (antibody, V domains shown)
VH: B1 VH with H54S, S63H
VL: B1 VL
notes: 31H4 His variant: HC 73(63), 132(106), parental(113H)
B3: in experiment [1], the Kd is 0.185 nM, the koff turned out to be 0.000255 s⁻¹ and the kon was found to be 1.38e+06 M⁻¹ s⁻¹. Further, the “estimated complex half life pH 5.5” value in experiment [2] is 100 s.

B4: SS-15126 (antibody, V domains shown)
VH: B1 VH with H54S, S56H, S63H, H106Y
VL: B1 VL
notes: 31H4 His variant: HC 66(56), 73(63), parental(113H)
In experiment [1], B4 displayed a Kd of 0.257 nM, a dissociation rate constant (koff) of 0.000385 s⁻¹ and a kon of 1.5e+06 M⁻¹ s⁻¹. Besides, the “estimated complex half life pH 5.5” value in experiment [2] was 100 s.

B5: SS-15124 (antibody, V domains shown)
VH: B1 VH with H54S, S56H, Y60H, H106Y
VL: B1 VL
notes: 31H4 His variant: HC 66(56), 70(60), parental(113H)
On to B5, for which, in experiment [1], the affinity, expressed as Kd, was 0.327 nM; the koff is 0.000525 s⁻¹; the kon was found to be 1.6e+06 M⁻¹ s⁻¹. In addition, the “estimated complex half life pH 5.5” value in experiment [2] was 100 s.

B6: SS-15139 (antibody, V domains shown)
VH: B1 VH with H54S, D62H
VL: B1 VL
notes: 31H4 His variant: HC 72(62), 132(106), parental(113H)
In experiment [1], B6 showed a Kd of 0.19 nM, a koff of 0.000248 s⁻¹ and a kon of 1.31e+06 M⁻¹ s⁻¹. For the same molecule, in experiment [2], the “estimated complex half life pH 5.5” value is 100 s.
